Laboratory results published in patent publication US20240400654A1.
Substitutions are numbered along the chain they refer to. Numbers in names are those of the source. Where “and” joins values, the source holds several entries; their conditions need not be identical. Equal entries are not always repeated.

B1: KB001 mouse Fab VH L29P (Fab, V domains shown)
VH: EVQLKQSGPGLVAPSQSLSITCTVSGFSPSIYSVHWVRQPPGKGLEWLGMIWGGGSSDYNSALKSRLSISKDNSKSQVFLKMNSLQTDDTAMYYCARNGNFYAMDYWGQGTSVTVSS
VL: QIVLTQSPAIMSASLGERVTMTCTASSSVSSSFLHWYQQKPGSSPQLWIYSTSNLASGVPARFSGSGSGTSYSLTISSMEAEDAATYYCHQYHHSPYIYTFGGGTKLEIK
B2: KB001 mouse Fab VH Y32S (Fab, V domains shown)
VH: B1 VH with P29L, Y32S
VL: B1 VL
B3: KB001 mouse Fab VH H35V (Fab, V domains shown)
VH: B1 VH with P29L, H35V
VL: B1 VL
B4: KB001 mouse Fab VH I31F (Fab, V domains shown)
VH: B1 VH with P29L, I31F
VL: B1 VL
B5: KB001 mouse Fab VH S30R (Fab, V domains shown)
VH: B1 VH with P29L, S30R
VL: B1 VL
B6: KB001 mouse Fab VH Y32F (Fab, V domains shown)
VH: B1 VH with P29L, Y32F
VL: B1 VL
B7: KB001 mouse Fab VH G55N (Fab, V domains shown)
VH: B1 VH with P29L, G55N
VL: B1 VL
B8: KB001 mouse Fab VH G55D (Fab, V domains shown)
VH: B1 VH with P29L, G55D
VL: B1 VL
B9: KB001 mouse Fab VH D58S (Fab, V domains shown)
VH: B1 VH with P29L, D58S
VL: B1 VL
B10: KB001 mouse Fab VH I31E (Fab, V domains shown)
VH: B1 VH with P29L, I31E
VL: B1 VL
B11: KB001 mouse Fab VH Y32N (Fab, V domains shown)
VH: B1 VH with P29L, Y32N
VL: B1 VL
B12: KB001 mouse Fab VH L29T (Fab, V domains shown)
VH: B1 VH with P29T
VL: B1 VL
B13: KB001 mouse Fab VH S56T (Fab, V domains shown)
VH: B1 VH with P29L, S56T
VL: B1 VL
B14: KB001 mouse Fab VH S57H (Fab, V domains shown)
VH: B1 VH with P29L, S57H
VL: B1 VL
B15: KB001 mouse Fab VH I31Q (Fab, V domains shown)
VH: B1 VH with P29L, I31Q
VL: B1 VL
B16: KB001 mouse Fab VH S30K (Fab, V domains shown)
VH: B1 VH with P29L, S30K
VL: B1 VL
B17: KB001 mouse Fab VH V34M (Fab, V domains shown)
VH: B1 VH with P29L, V34M
VL: B1 VL
B18: KB001 mouse Fab VH L29V (Fab, V domains shown)
VH: B1 VH with P29V
VL: B1 VL
B19: KB001 mouse Fab VH S30T (Fab, V domains shown)
VH: B1 VH with P29L, S30T
VL: B1 VL
B20: KB001 mouse Fab VH S57T (Fab, V domains shown)
VH: B1 VH with P29L, S57T
VL: B1 VL
B21: KB001 mouse Fab VH S30F (Fab, V domains shown)
VH: B1 VH with P29L, S30F
VL: B1 VL
B22: KB001 mouse Fab VH I51Q/M92I (Fab, V domains shown)
VH: B1 VH with P29L, I51Q, M92I
VL: B1 VL
B23: KB001 mouse Fab VH S56L (Fab, V domains shown)
VH: B1 VH with P29L, S56L
VL: B1 VL
B24: KB001 mouse Fab VH S30W (Fab, V domains shown)
VH: B1 VH with P29L, S30W
VL: B1 VL
B25: KB001 mouse Fab VH I31P (Fab, V domains shown)
VH: B1 VH with P29L, I31P
VL: B1 VL
B26: KB001 mouse Fab VH G53P (Fab, V domains shown)
VH: B1 VH with P29L, G53P
VL: B1 VL
B27: KB001 mouse Fab VH I51V (Fab, V domains shown)
VH: B1 VH with P29L, I51V
VL: B1 VL
B28: KB001 mouse Fab VH S56P (Fab, V domains shown)
VH: B1 VH with P29L, S56P
VL: B1 VL
B29: KB001 mouse Fab VH S57R (Fab, V domains shown)
VH: B1 VH with P29L, S57R
VL: B1 VL
B30: KB001 mouse Fab VH S30Q (Fab, V domains shown)
VH: B1 VH with P29L, S30Q
VL: B1 VL
B31: KB001 mouse Fab VH S57M (Fab, V domains shown)
VH: B1 VH with P29L, S57M
VL: B1 VL
B32: KB001 mouse Fab VH S56N (Fab, V domains shown)
VH: B1 VH with P29L, S56N
VL: B1 VL
B33: KB001 mouse Fab VH G53S (Fab, V domains shown)
VH: B1 VH with P29L, G53S
VL: B1 VL
B34: KB001 mouse Fab VH S56E (Fab, V domains shown)
VH: B1 VH with P29L, S56E
VL: B1 VL
B35: KB001 mouse Fab VH Y32W (Fab, V domains shown)
VH: B1 VH with P29L, Y32W
VL: B1 VL
B36: KB001 mouse Fab VH I31N (Fab, V domains shown)
VH: B1 VH with P29L, I31N
VL: B1 VL
B37: KB001 mouse Fab VH I31W (Fab, V domains shown)
VH: B1 VH with P29L, I31W
VL: B1 VL
B38: KB001 mouse Fab VH S30L (Fab, V domains shown)
VH: B1 VH with P29L, S30L
VL: B1 VL
B39: KB001 mouse Fab VH I31L (Fab, V domains shown)
VH: B1 VH with P29L, I31L
VL: B1 VL
B40: KB001 mouse Fab VH S30M (Fab, V domains shown)
VH: B1 VH with P29L, S30M
VL: B1 VL
B41: KB001 mouse Fab VH S56M (Fab, V domains shown)
VH: B1 VH with P29L, S56M
VL: B1 VL
B42: KB001 mouse Fab VH S30H (Fab, V domains shown)
VH: B1 VH with P29L, S30H
VL: B1 VL

target: HRgpA-6H (Porphyromonas gingivalis) (UniProt P28784); assay: ELISA, coated HRgpA-6H
Sequence of UniProt P28784 (P28784 228-860 limits assumed): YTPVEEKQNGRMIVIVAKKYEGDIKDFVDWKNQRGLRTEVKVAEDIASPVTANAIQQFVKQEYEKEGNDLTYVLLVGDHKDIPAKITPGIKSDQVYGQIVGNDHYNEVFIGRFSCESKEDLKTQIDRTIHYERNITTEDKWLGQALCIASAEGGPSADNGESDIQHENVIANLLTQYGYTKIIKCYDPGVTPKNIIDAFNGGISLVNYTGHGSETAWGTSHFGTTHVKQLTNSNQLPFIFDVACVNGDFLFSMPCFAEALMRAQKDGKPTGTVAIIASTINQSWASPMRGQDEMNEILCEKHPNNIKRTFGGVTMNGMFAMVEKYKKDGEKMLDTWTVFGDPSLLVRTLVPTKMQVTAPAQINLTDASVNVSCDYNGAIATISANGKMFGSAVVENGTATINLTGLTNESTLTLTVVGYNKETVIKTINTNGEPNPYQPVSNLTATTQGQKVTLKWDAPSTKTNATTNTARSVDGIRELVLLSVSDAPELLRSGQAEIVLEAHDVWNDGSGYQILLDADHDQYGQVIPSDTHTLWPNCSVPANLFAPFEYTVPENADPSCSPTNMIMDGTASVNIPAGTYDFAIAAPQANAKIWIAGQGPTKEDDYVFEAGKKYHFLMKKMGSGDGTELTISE

Binder	OD450 nm	Ratio OD(Variant)/OD(WT)
B1	0.468	0.867
B2	0.717 and 0.783 and 0.718	0.847 and 0.925 and 0.848
B3	0.706	0.856
B4	0.45	0.892
B5	0.481	0.953
B6	0.814 and 0.807	0.962 and 0.953
B7	0.652	0.81
B8	0.697	0.866
B9	0.646	0.817
B10	0.42 and 0.458 and 0.428	0.833 and 0.908 and 0.848
B11	0.826 and 0.775	0.976 and 0.916
B12	0.502 and 0.512 and 0.501	0.93 and 0.948 and 0.928
B13	0.838 and 0.844 and 0.853	0.953 and 0.96 and 0.97
B14	0.8	0.91
B15	0.44 and 0.439	0.872 and 0.87
B16	0.46 and 0.467 and 0.493	0.912 and 0.926 and 0.977
B17	0.793 and 0.791	0.962 and 0.959
B18	0.446	0.826
B19	0.457	0.906
B20	0.843 and 0.849	0.958 and 0.965
B21	0.438	0.868

Binder	OD450 nm	Ratio OD(Variant)/OD(WT)
B22	0.722	0.817
B23	0.71	0.807
B24	0.469	0.93
B25	0.471 and 0.428	0.934 and 0.848
B26	0.754 and 0.716	0.947 and 0.899
B27	0.798	0.903
B28	0.855 and 0.788 and 0.824	0.972 and 0.896 and 0.937
B29	0.796	0.905
B30	0.47 and 0.483	0.932 and 0.957
B31	0.748	0.85
B32	0.759 and 0.743	0.863 and 0.845
B33	0.686	0.861
B34	0.772 and 0.713	0.878 and 0.811
B35	0.731 and 0.718 and 0.747	0.864 and 0.848 and 0.882
B36	0.429	0.85
B37	0.459	0.91
B38	0.468	0.928
B39	0.442 and 0.431	0.876 and 0.854
B40	0.437	0.866
B41	0.809	0.92
B42	0.482	0.955
